Bounds are passed on as bounds.

The results in this text go back to patent US20200024330A1.

Holding throughout (experiment): cell-based or functional assay
Assay [1] deals with HIV-1 MGRM-F1-013 Env (pseudovirus) (HIV-1).
The target of assay [2] is HIV-1 IAVI-C22 envelope glycoprotein (Env) on pseudovirus (HIV-1).
Assay [3] deals with aMLV envelope protein on pseudovirus (aMLV).
Assay [4] has as its target HIV-1 JR-CSF Env, wild type (pseudovirus) (HIV-1 JR-CSF) (UniProt P20871).
Assay [5] addresses HIV-1 94UG103 envelope protein (Env) on pseudotyped virus (HIV-1 isolate 94UG103).
In assay [6] the target is HIV-1 APV-6 envelope glycoprotein (Env) on pseudovirus (HIV-1).
Assay [7] deals with HIV-1 Env of isolate MGRM-D-028 (HIV-1).
Assay [8] addresses HIV-1 Env of isolate MGRM-Chronic-B-024 (subtype B) (HIV-1).
The target of assay [9] is HIV-1 Env of isolate MGRM-C-024 (subtype C), on pseudovirus (HIV-1).
For assay [10], the target named is HIV-1 Env of isolate MGRM-D-024 (HIV-1).
For assay [11], the target named is HIV-1 Env of isolate MGRM-A-012 (HIV-1).
Assay [12] concerns the target HIV-1 envelope glycoprotein (Env) of isolate MGRM-Chronic-B-017, on pseudovirus (HIV-1).
Assay [13] concerns the target HIV-1 Env of isolate 92RW026 (HIV-1).
The target in assay [14] is HIV-1 Env of isolate SC422661.8 (subtype B) (HIV-1).
In assay [15] the target is HIV-1 93IN905 envelope glycoprotein (Env) (HIV-1).
In assay [16] the target is HIV-1 APV6 Env (pseudovirus) (HIV-1).
Assay [17] concerns the target HIV-1 MGRM-C-026 Env (pseudovirus) (HIV-1).
The target of assay [18] is HIV-1 MGRM-D-001 Env (pseudovirus) (HIV-1).
Assay [19] has as its target HIV-1 MGRM-Chronic-B-010 Env (pseudovirus) (HIV-1).
Assay [20] deals with HIV-1 Env of isolate MG RM-AG-003 (HIV-1).
Assay [21] addresses HIV-1 envelope glycoprotein (Env) of isolate MGRM-C-028, on pseudovirus (HIV-1).
Assay [22] deals with HIV-1 envelope glycoprotein (Env) of isolate MGRM-C-027, on pseudovirus (HIV-1).
Assay [23] deals with HIV-1 MGRM-C-027 Env (on pseudovirus) (HIV-1).
The target in assay [24] is HIV-1 93UG077 Env (on pseudovirus) (HIV-1).
The target of assay [25] is HIV-1 MGRM-AG-005 Env (on pseudovirus) (HIV-1).
Assay [26] addresses HIV-1 JRCSF Env (on pseudovirus) (HIV-1) (UniProt P20871).
Assay [27] deals with HIV-1 MGRM-C-026 Env (on pseudovirus) (HIV-1).
Assay [28] has as its target HIV-1 envelope glycoprotein (Env) of isolate MGRM-C-015, on pseudovirus (HIV-1).
For assay [29], the target named is HIV-1 APV6 Env (on pseudovirus) (HIV-1).
Assay [30] deals with HIV-1 envelope glycoprotein (Env) of isolate MGRM-C-014, on pseudovirus (HIV-1).

PGT-143 (4980_N08) (antibody), sequence (VH): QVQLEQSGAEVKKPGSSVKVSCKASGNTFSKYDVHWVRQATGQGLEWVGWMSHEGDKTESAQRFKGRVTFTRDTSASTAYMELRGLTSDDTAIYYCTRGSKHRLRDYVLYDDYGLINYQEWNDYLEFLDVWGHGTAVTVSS
PGT-143 (4980_N08) (antibody), sequence (VL): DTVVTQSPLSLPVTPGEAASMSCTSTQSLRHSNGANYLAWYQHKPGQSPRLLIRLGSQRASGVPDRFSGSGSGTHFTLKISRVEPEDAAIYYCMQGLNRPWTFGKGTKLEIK
1443_C16 (PG16) (TCN-116) (antibody), sequence (VH): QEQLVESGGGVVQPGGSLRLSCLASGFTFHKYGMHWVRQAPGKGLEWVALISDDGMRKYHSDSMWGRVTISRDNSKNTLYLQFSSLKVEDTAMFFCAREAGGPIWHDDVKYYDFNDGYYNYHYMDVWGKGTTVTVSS
1443_C16 (PG16) (TCN-116) (antibody), sequence (VL): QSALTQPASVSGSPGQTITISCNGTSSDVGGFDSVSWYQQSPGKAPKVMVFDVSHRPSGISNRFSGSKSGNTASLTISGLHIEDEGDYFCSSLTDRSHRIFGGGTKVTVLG
PGT-141 (4964_G22; 4993_K13) (antibody), sequence (VH): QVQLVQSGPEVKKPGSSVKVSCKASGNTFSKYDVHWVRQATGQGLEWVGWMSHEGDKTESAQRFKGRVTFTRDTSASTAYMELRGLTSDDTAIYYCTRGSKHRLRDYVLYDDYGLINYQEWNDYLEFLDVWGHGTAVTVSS
PGT-141 (4964_G22; 4993_K13) (antibody), sequence (VL): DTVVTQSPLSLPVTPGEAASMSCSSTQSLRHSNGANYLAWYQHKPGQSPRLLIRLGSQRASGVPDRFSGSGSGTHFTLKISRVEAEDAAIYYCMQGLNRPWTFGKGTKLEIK
PGT-144 (4970_K22) (antibody), sequence (VH): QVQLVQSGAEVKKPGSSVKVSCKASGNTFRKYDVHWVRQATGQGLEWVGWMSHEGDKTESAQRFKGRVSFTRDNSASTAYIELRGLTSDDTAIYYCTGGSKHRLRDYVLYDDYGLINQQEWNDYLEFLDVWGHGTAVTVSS
PGT-144 (4970_K22) (antibody), sequence (VL): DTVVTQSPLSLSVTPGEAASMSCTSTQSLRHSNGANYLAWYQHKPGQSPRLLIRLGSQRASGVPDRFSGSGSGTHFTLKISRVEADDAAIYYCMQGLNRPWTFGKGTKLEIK
PGT-142 (4995_E20) (antibody), sequence (VH): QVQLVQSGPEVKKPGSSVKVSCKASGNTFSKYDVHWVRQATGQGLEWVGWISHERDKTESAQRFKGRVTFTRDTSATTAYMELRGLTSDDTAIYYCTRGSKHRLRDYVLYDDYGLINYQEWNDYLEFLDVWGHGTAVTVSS

In assay [1], 2F5 (antibody) had an IC50 (µg/ml), pseudovirus neutralization of 4.57 µg/mL. Besides, the IC90 (pseudovirus neutralization) in [2] and in assay [3] was over 50 µg/mL in each case.

In the case of 2G12 (antibody), the IC50 (µg/ml), pseudovirus neutralization in [1] was over 50 µg/mL. Further, the IC90 (pseudovirus neutralization) in assay [2] and in assay [3] was over 50 µg/mL throughout.

Consider 4E10 (antibody), for which the IC90 (pseudovirus neutralization) was 16.4 µg/mL in [2] and over 50 µg/mL in assay [3].

Take 1443_C16 (PG16) (TCN-116) (antibody): the IC50 (ug/ml), neutralization in assay [4] is 0.001 µg/mL. Besides, the IC50, pseudovirus neutralization, 1 hour Virus/Ab Incubation in assay [5] is 0.0211 µg/mL. Moreover, in assay [5], the IC50, pseudovirus neutralization, 18 hour Virus/Ab Incubation stood at 0.0085 µg/mL. Moreover, the IC90 (pseudovirus neutralization) is 44.3 µg/mL in [6], over 50 µg/mL in [2] and over 50 µg/mL in [3].

In assay [5], 1495_C14 (PGC14) (antibody) returned an IC50, pseudovirus neutralization, 1 hour Virus/Ab Incubation of over 50 µg/mL and an IC50, pseudovirus neutralization, 18 hour Virus/Ab Incubation of over 50 µg/mL. In assay [1], this substance gave an IC50 (µg/ml), pseudovirus neutralization of 6 µg/mL.

As usually defined, the IC50 is the concentration that gives 50% inhibition. Low readings indicate higher potency, high ones lower potency. Substance 1496_C09 (PG9) (TCN-109) (antibody) gave an IC50 (ug/ml), neutralization in assay [4] of 0.006 µg/mL. In addition, the IC50 (µg/mL), pseudovirus neutralization was found to be 20.2 µg/mL in assay [7]; 0.222 µg/mL in [8]; 0.227 µg/mL in assay [9]; 0.038 µg/mL in [10]; 19.3 µg/mL in assay [11]; 1.48 µg/mL in assay [14]. This substance also came in with an IC50, pseudovirus neutralization, 1 hour Virus/Ab Incubation in [5] of 0.334 µg/mL. In assay [5], this substance had an IC50, pseudovirus neutralization, 18 hour Virus/Ab Incubation of 0.0942 µg/mL. In assay [1], this substance came in with an IC50 (µg/ml), pseudovirus neutralization of 0.56 µg/mL. The substance further had an IC90 (pseudovirus neutralization) in assay [6] of 1.96 µg/mL. For the same substance, the IC50, pseudovirus neutralization in assay [12] came out at 0.688 µg/mL. The same substance came in with an IC50 in assay [13] of 0.164 µg/mL. Further, the IC50 neutralization in [15] worked out at 0.048 µg/mL.

In assay [16], 4838_L06 (PGT-121) (antibody) showed a neutralization IC80 of 0.145 µg/mL and a neutralization IC95 of 0.569 µg/mL. Also, the neutralization IC95 in [17] was determined as 0.0687 µg/mL. In assay [18], the neutralization IC80 came to 3.29 µg/mL, the neutralization IC90 was 6.26 µg/mL and the neutralization IC95 came to 9.39 µg/mL.

For the substance 4858_P08 (PGT-123) (antibody), in assay [19], the IC50, pseudovirus neutralization came out at 0.009 µg/mL. The neutralization IC50 in assay [20] was over 50 µg/mL.

In assay [19], 4877_D15 (PGT-122) (antibody) came in with an IC50, pseudovirus neutralization of 0.018 µg/mL. Moreover, in assay [20], the neutralization IC50 amounted to 43.7 µg/mL.

In [19], 5123_A06 (PGT-125) (antibody) yielded an IC50, pseudovirus neutralization of 0.006 µg/mL. The neutralization IC50 in [20] is over 50 µg/mL.

In general, IC80 refers to the concentration needed for an effect of 80%. Read a high IC80 as a need for much substance. The term IC90 denotes the point of the concentration-response curve where the effect stands at 90%. A word on the IC95: it is the concentration at which the effect reaches the 95% level. As to 5141_B17 (PGT-126) (antibody), in [16], the IC50 is 0.0249 µg/mL, the IC80 worked out at 0.0681 µg/mL, the IC90 came out at 0.123 µg/mL and the IC95 stood at 0.213 µg/mL. The IC50, pseudovirus neutralization in assay [19] was found to be 0.005 µg/mL. For the same substance, in assay [17], the IC50 was 0.0076 µg/mL, the IC80 was 0.0345 µg/mL, the IC90 was determined as 0.0831 µg/mL and the IC95 stood at 0.185 µg/mL. In assay [18], this substance yielded an IC50 of 0.0639 µg/mL, an IC80 of 0.333 µg/mL, an IC90 of 0.832 µg/mL and an IC95 of 1.8 µg/mL. The same substance showed a neutralization IC50 in assay [20] of over 50 µg/mL.

Take 5145_B14 (PGT-127) (antibody): the IC50, pseudovirus neutralization in assay [19] turned out to be 0.019 µg/mL. The same substance gave a neutralization IC50 in assay [20] of over 50 µg/mL.

Consider PGT-141 (4964_G22; 4993_K13) (antibody), for which the IC50, pseudovirus neutralization in [21] worked out at 13.8 µg/mL; in assay [22] it was 3.27 µg/mL; in assay [28], 0.033 µg/mL; in assay [30], 11.8 µg/mL. In addition, the IC50 (ug/ml), pseudovirus neutralization in [23] is 0.822 µg/mL; in assay [24], over 10 µg/mL; in assay [25] it was 0.392 µg/mL; in assay [26], 0.0047 µg/mL; in [27], over 10 µg/mL; in assay [29], 5.08 µg/mL.

On to PGT-142 (4995_E20) (antibody), for which the IC50, pseudovirus neutralization was 2.12 µg/mL in assay [21], 0.792 µg/mL in assay [22], 0.038 µg/mL in [28] and 6.02 µg/mL in assay [30]. For the same substance, the IC50 (ug/ml), pseudovirus neutralization in [23] was 0.272 µg/mL; in assay [24], over 10 µg/mL; in assay [25], 0.22 µg/mL; in assay [26] it was 0.0085 µg/mL; in assay [27], over 10 µg/mL; in assay [29], 5.42 µg/mL.

PGT-143 (4980_N08) (antibody): the IC50, pseudovirus neutralization in assay [21] worked out at 12.4 µg/mL; in assay [22], 0.598 µg/mL; in assay [28], 0.085 µg/mL; in [30], 8.81 µg/mL. Moreover, the IC50 (ug/ml), pseudovirus neutralization is 0.505 µg/mL in [23]; over 10 µg/mL in assay [24]; 0.244 µg/mL in [25]; 0.0064 µg/mL in [26]; over 10 µg/mL in [27]; 4.43 µg/mL in assay [29].

Regarding PGT-144 (4970_K22) (antibody), the IC50, pseudovirus neutralization in assay [21] is over 50 µg/mL; in assay [22], over 50 µg/mL; in assay [28], 0.236 µg/mL; in assay [30] it was over 50 µg/mL. The IC50 (ug/ml), pseudovirus neutralization in [23] was over 10 µg/mL; in [24] it was over 10 µg/mL; in [25] it was over 10 µg/mL; in assay [26], 0.128 µg/mL; in assay [27], over 10 µg/mL; in assay [29], over 10 µg/mL.

PGV04 (antibody): the IC50 (µg/mL), pseudovirus neutralization in [7] was 1.01 µg/mL; in [8], 2.52 µg/mL; in assay [9], over 50 µg/mL; in assay [10], over 50 µg/mL; in [11], 0.225 µg/mL; in assay [14], 0.11 µg/mL. The substance also gave an IC50, pseudovirus neutralization in assay [12] of 0.129 µg/mL. This substance showed an IC50 in assay [13] of 0.14 µg/mL.

VRC01 (antibody): the IC50, pseudovirus neutralization in assay [7] was 0.377 µg/mL; in [21], 0.319 µg/mL; in assay [22] it was 0.125 µg/mL; in assay [10], 0.366 µg/mL; in assay [28] it was 1.57 µg/mL; in assay [30] it was over 50 µg/mL.

b12 (antibody): in assay [1], the IC50 (µg/ml), pseudovirus neutralization is over 50 µg/mL. Further, the values for the IC90 (pseudovirus neutralization) in [6], in assay [2] and in assay [3] were over 50 µg/mL, 29.6 µg/mL and over 50 µg/mL, respectively.
